According to article doi:10.1101/2022.10.13.511879 (bioRxiv, 2022):
Each block holds one binder with its values, some of them ahead of it.

Tests used:
POPDC2 p.W188X-VN155 = target: T1, POPDC2 p.W188X-VN155 (human, UniProt Q9HBU9 1-187); test: split reporter
T1 sequence (looked up): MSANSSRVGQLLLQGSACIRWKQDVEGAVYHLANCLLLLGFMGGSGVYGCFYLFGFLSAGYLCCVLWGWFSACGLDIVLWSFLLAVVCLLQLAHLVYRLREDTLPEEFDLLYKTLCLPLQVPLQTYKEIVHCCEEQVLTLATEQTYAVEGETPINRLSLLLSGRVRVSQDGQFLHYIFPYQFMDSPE

[1] = target: the molecule itself; test: SDS-PAGE and Western blot of oligomer bands that withstand SDS
FRET or BRET = target: the molecule itself; test: FRET or BRET
POPDC2-VN155 = target: T2, POPDC2-VN155 (human, UniProt Q9HBU9 1-364); test: split reporter
T2 sequence (looked up): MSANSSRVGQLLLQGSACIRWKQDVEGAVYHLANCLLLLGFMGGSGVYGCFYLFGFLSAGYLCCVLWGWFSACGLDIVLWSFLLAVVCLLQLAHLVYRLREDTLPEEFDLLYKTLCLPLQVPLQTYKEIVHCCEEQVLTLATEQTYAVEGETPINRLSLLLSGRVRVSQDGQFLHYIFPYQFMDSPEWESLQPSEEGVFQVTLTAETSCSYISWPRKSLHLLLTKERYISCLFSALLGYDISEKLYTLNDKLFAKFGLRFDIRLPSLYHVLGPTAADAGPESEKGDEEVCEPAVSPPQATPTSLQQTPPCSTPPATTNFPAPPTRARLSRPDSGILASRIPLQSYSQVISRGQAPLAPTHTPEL

BiFC signal relative to the wild-type pair (POPDC2 p.W188X-VN155): 0.59
B1: POPDC1-VC155 (natural protein, human, UniProt Q8NE79 1-360, looked up)
chain: MNYTESSPLRESTAIGFTPELESIIPVPSNKTTCENWREIHHLVFHVANICFAVGLVIPTTLHLHMIFLRGMLTLGCTLYIVWATLYRCALDIMIWNSVFLGVNILHLSYLLYKKRPVKIEKELSGMYRRLFEPLRVPPDLFRRLTGQFCMIQTLKKGQTYAAEDKTSVDDRLSILLKGKMKVSYRGHFLHNIYPCAFIDSPEFRSTQMHKGEKFQVTIIADDNCRFLCWSRERLTYFLESEPFLYEIFRYLIGKDITNKLYSLNDPTLNDKKAKKLEHQLSLCTQISMLEMRNSIASSSDSDDGLHQFLRGTSSMSSLHVSSPHQRASAKMKPIEEGAEDDDDVFEPASPNTLKVHQLP

B2: POPDC1-CFP (natural protein, human, UniProt Q8NE79 1-360, looked up)
chain: MNYTESSPLRESTAIGFTPELESIIPVPSNKTTCENWREIHHLVFHVANICFAVGLVIPTTLHLHMIFLRGMLTLGCTLYIVWATLYRCALDIMIWNSVFLGVNILHLSYLLYKKRPVKIEKELSGMYRRLFEPLRVPPDLFRRLTGQFCMIQTLKKGQTYAAEDKTSVDDRLSILLKGKMKVSYRGHFLHNIYPCAFIDSPEFRSTQMHKGEKFQVTIIADDNCRFLCWSRERLTYFLESEPFLYEIFRYLIGKDITNKLYSLNDPTLNDKKAKKLEHQLSLCTQISMLEMRNSIASSSDSDDGLHQFLRGTSSMSSLHVSSPHQRASAKMKPIEEGAEDDDDVFEPASPNTLKVHQLP
stoichiometry N [1]: 2

B3: POPDC1 with C-terminal NanoLuc or HaloTag (NanoBRET constructs) (natural protein, human, UniProt Q8NE79 1-360, looked up)
chain: MNYTESSPLRESTAIGFTPELESIIPVPSNKTTCENWREIHHLVFHVANICFAVGLVIPTTLHLHMIFLRGMLTLGCTLYIVWATLYRCALDIMIWNSVFLGVNILHLSYLLYKKRPVKIEKELSGMYRRLFEPLRVPPDLFRRLTGQFCMIQTLKKGQTYAAEDKTSVDDRLSILLKGKMKVSYRGHFLHNIYPCAFIDSPEFRSTQMHKGEKFQVTIIADDNCRFLCWSRERLTYFLESEPFLYEIFRYLIGKDITNKLYSLNDPTLNDKKAKKLEHQLSLCTQISMLEMRNSIASSSDSDDGLHQFLRGTSSMSSLHVSSPHQRASAKMKPIEEGAEDDDDVFEPASPNTLKVHQLP
stoichiometry N (FRET or BRET): 2

BiFC signal relative to the wild-type pair (POPDC2-VN155): 0.43
B4: POPDC1 p.S201F-VC155 (natural protein, human, UniProt Q8NE79 1-360, looked up)
chain: MNYTESSPLRESTAIGFTPELESIIPVPSNKTTCENWREIHHLVFHVANICFAVGLVIPTTLHLHMIFLRGMLTLGCTLYIVWATLYRCALDIMIWNSVFLGVNILHLSYLLYKKRPVKIEKELSGMYRRLFEPLRVPPDLFRRLTGQFCMIQTLKKGQTYAAEDKTSVDDRLSILLKGKMKVSYRGHFLHNIYPCAFIDFPEFRSTQMHKGEKFQVTIIADDNCRFLCWSRERLTYFLESEPFLYEIFRYLIGKDITNKLYSLNDPTLNDKKAKKLEHQLSLCTQISMLEMRNSIASSSDSDDGLHQFLRGTSSMSSLHVSSPHQRASAKMKPIEEGAEDDDDVFEPASPNTLKVHQLP

BiFC signal relative to the wild-type pair (POPDC2-VN155): 0.248
B5: POPDC1 p.Q153X-VC155 (domain or fragment, human, UniProt Q8NE79 1-152, looked up)
chain: MNYTESSPLRESTAIGFTPELESIIPVPSNKTTCENWREIHHLVFHVANICFAVGLVIPTTLHLHMIFLRGMLTLGCTLYIVWATLYRCALDIMIWNSVFLGVNILHLSYLLYKKRPVKIEKELSGMYRRLFEPLRVPPDLFRRLTGQFCMI
